From US20150344570A1 (published 2015)

T1: FcγRIIb (human, UniProt P31994 43-217)
T1 construct: extracellular domain; also called FcgRIIb; 2b
T1 sequence (looked up): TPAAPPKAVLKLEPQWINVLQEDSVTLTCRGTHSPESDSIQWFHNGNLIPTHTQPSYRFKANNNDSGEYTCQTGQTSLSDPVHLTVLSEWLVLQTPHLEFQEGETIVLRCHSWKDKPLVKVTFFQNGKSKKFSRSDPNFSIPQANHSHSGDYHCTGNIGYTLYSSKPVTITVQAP

T2: FcγRIIa H (human, UniProt P12318 34-217)
T2 construct: extracellular domain; also called FcgRIIa H; FcγRIIa type H
T2 sequence (looked up): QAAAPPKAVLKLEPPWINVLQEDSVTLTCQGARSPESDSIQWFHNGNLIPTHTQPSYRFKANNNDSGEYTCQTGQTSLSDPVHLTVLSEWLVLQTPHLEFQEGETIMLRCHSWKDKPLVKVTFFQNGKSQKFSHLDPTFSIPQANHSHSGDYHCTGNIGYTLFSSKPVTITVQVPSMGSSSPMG

B1: GpH7-A5/GpH7-B3 variant G237_05P/GpL16-k0 (antibody, human IgG1, kappa)
heavy 1: not shown
heavy 2: not shown
light: DIVMTQSPLSLPVTPGEPASISCQASESLVHSNRNTYLHWYLQKPGQSPQLLIYKVSNRFSGVPDRFSGSGSGTDFTLKISRVEAEDVGVYYCSQNTHVPPTFGQGTKVEIERTVAAPSVFIFPPSDEQLKSGTASVVCLLNNFYPREAKVQWKVDNALQSGNSQESVTEQDSKDSTYSLSSTLTLSKADYEKHKVYACEVTHQGLSSPVTKSFNRGEC
notes: Heterodimerized antibody, alteration in one H chain only; also called He Ab G237P
B2: GpH7-A5/GpH7-B3 variant H268_05P/GpL16-k0 (antibody, human IgG1, kappa)
heavy 1: not shown
heavy 2: not shown
light: B1 light
notes: Heterodimerized antibody, alteration in one H chain only; also called He Ab H268P
B3: GpH7-A5/GpH7-B3 variant K326_08L/GpL16-k0 (antibody, human IgG1, kappa)
heavy 1: not shown
heavy 2: not shown
light: B1 light
notes: Heterodimerized antibody, alteration in one H chain only; also called He Ab K326L
B4: GpH7-A5/GpH7-B3 variant P238_09D/GpL16-k0 (antibody, human IgG1, kappa)
heavy 1: not shown
heavy 2: not shown
light: B1 light
notes: Heterodimerized antibody, alteration in one H chain only; also called He Ab P238D
B5: GpH7-A5/GpH7-B3 variant H268_03V/GpL16-k0 (antibody, human IgG1, kappa)
heavy 1: not shown
heavy 2: not shown
light: B1 light
notes: Heterodimerized antibody, alteration in one H chain only; also called He Ab H268V
B6: GpH7-A5/GpH7-B3 variant H268_20W/GpL16-k0 (antibody, human IgG1, kappa)
heavy 1: not shown
heavy 2: not shown
light: B1 light
notes: Heterodimerized antibody, alteration in one H chain only; also called He Ab H268W
B7: GpH7-A5/GpH7-B3 variant H268_01G/GpL16-k0 (antibody, human IgG1, kappa)
heavy 1: not shown
heavy 2: not shown
light: B1 light
notes: Heterodimerized antibody, alteration in one H chain only; also called He Ab H268G
B8: GpH7-A5/GpH7-B3 variant K326_05P/GpL16-k0 (antibody, human IgG1, kappa)
heavy 1: not shown
heavy 2: not shown
light: B1 light
notes: Heterodimerized antibody, alteration in one H chain only; also called He Ab K326P
B9: GpH7-A5/GpH7-B3 variant K326_04F/GpL16-k0 (antibody, human IgG1, kappa)
heavy 1: not shown
heavy 2: not shown
light: B1 light
notes: Heterodimerized antibody, alteration in one H chain only; also called He Ab K326F
B10: GpH7-A5/GpH7-B3 variant K326_03V/GpL16-k0 (antibody, human IgG1, kappa)
heavy 1: not shown
heavy 2: not shown
light: B1 light
notes: Heterodimerized antibody, alteration in one H chain only; also called He Ab K326V
B11: GpH7-A5/GpH7-B3 variant P238_08L/GpL16-k0 (antibody, human IgG1, kappa)
heavy 1: not shown
heavy 2: not shown
light: B1 light
notes: Heterodimerized antibody, alteration in one H chain only; also called He Ab P238L
B12: GpH7-A5/GpH7-B3 variant S298_10E/GpL16-k0 (antibody, human IgG1, kappa)
heavy 1: not shown
heavy 2: not shown
light: B1 light
notes: heterodimerized IgG1, mutation in one H chain; also called He Ab
B13: GpH7-A5/GpH7-B3 variant S324_19Q/GpL16-k0 (antibody, human IgG1, kappa)
heavy 1: not shown
heavy 2: not shown
light: B1 light
notes: as for B12
B14: GpH7-A5/GpH7-B3 variant P271_13S/GpL16-k0 (antibody, human IgG1, kappa)
heavy 1: not shown
heavy 2: not shown
light: B1 light
notes: as for B12
B15: GpH7-A5/GpH7-B3 variant S239_01G/GpL16-k0 (antibody, human IgG1, kappa)
heavy 1: not shown
heavy 2: not shown
light: B1 light
notes: as for B12
B16: GpH7-A5/GpH7-B3 variant S298_03V/GpL16-k0 (antibody, human IgG1, kappa)
heavy 1: not shown
heavy 2: not shown
light: B1 light
notes: as for B12
B17: GpH7-A5/GpH7-B3 variant S267_03V/GpL16-k0 (antibody, human IgG1, kappa)
heavy 1: not shown
heavy 2: not shown
light: B1 light
notes: as for B12
B18: GpH7-A5/GpH7-B3 variant Q295_04F/GpL16-k0 (antibody, human IgG1, kappa)
heavy 1: not shown
heavy 2: not shown
light: B1 light
notes: as for B12
B19: GpH7-A5/GpH7-B3 variant Q295_07I/GpL16-k0 (antibody, human IgG1, kappa)
heavy 1: not shown
heavy 2: not shown
light: B1 light
notes: as for B12
B20: GpH7-A5/GpH7-B3 variant S298_18N/GpL16-k0 (antibody, human IgG1, kappa)
heavy 1: not shown
heavy 2: not shown
light: B1 light
notes: as for B12
B21: GpH7-A5/GpH7-B3 variant P271_12R/GpL16-k0 (antibody, human IgG1, kappa)
heavy 1: not shown
heavy 2: not shown
light: B1 light
notes: as for B12
B22: GpH7-A5/GpH7-B3 variant S324_03V/GpL16-k0 (antibody, human IgG1, kappa)
heavy 1: not shown
heavy 2: not shown
light: B1 light
notes: as for B12
B23: GpH7-A5/GpH7-B3 variant S337_02A/GpL16-k0 (antibody, human IgG1, kappa)
heavy 1: not shown
heavy 2: not shown
light: B1 light
notes: as for B12
B24: GpH7-A5/GpH7-B3 variant S337_01G/GpL16-k0 (antibody, human IgG1, kappa)
heavy 1: not shown
heavy 2: not shown
light: B1 light
notes: as for B12
B25: GpH7-A5/GpH7-B3 variant Q295_18N/GpL16-k0 (antibody, human IgG1, kappa)
heavy 1: not shown
heavy 2: not shown
light: B1 light
notes: as for B12
B26: GpH7-A5/GpH7-B3 variant S324_20W/GpL16-k0 (antibody, human IgG1, kappa)
heavy 1: not shown
heavy 2: not shown
light: B1 light
notes: as for B12

Each binder was assayed against T1, FcγRIIb (assay: SPR (Biacore), antibody captured, FcγR analyte; binding relative to GpH7-A5/GpH7-B3/GpL16-k0 = 100).

He/Con_2b	Binder
24.6 % of control	B1
116 % of control	B2
177 % of control	B3
221 % of control	B4
114 % of control	B5
111 % of control	B6
144 % of control	B7
126 % of control	B8
155 % of control	B9
175 % of control	B10
204 % of control	B11

These binders were tested against T2, FcγRIIa H in the same assay as above.

He/Con_2aH	Binder
81.8 % of control	B2
92.7 % of control	B3
87.5 % of control	B4
99.2 % of control	B5
95.8 % of control	B6
99.2 % of control	B7
98.8 % of control	B8
97 % of control	B9
97 % of control	B10
84.6 % of control	B11

The binders below were run against T3, FcγRIa (human, UniProt P12314 16-292) (assay: SPR (Biacore), captured antibody, FcγRIa analyte; relative to HeCon Ab GpH7-A5/GpH7-B3/GpL16-k0 = 100).
T3 construct: extracellular domain; soluble extracellular domain with C-terminal His tag, expressed in FreeStyle293 cells; also called FcgRI; FcgRIa
T3 sequence (P12314 16-292): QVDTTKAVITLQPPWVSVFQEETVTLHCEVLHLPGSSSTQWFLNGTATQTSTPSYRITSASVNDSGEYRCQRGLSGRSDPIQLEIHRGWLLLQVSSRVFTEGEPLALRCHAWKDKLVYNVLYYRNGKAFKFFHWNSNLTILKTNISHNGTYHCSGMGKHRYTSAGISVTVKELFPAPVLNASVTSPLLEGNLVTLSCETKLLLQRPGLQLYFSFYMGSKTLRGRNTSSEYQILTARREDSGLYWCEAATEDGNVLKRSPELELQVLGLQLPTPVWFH

He/Con_1a	Binder
108 % of control	B12
112 % of control	B13
102 % of control	B14
101 % of control	B15
110 % of control	B16
106 % of control	B17
102 % of control	B18
103 % of control	B19
108 % of control	B20
102 % of control	B21
104 % of control	B22
106 % of control	B23
107 % of control	B24
102 % of control	B25
114 % of control	B26
